The values below come from paper PMC9481612, “Molecular architecture of the augmin complex” (Nature Communications, 2022).

The target in assay [1] is T1, HAUS5 (human, UniProt O94927 1-633).
T1 construct: HAUS5, human; 633; also called H5; source: High5 insect cells, co-infected with baculoviruses; purified as part of the augmin octamer (StrepII-Trap, Superose 6)
T1 sequence (looked up): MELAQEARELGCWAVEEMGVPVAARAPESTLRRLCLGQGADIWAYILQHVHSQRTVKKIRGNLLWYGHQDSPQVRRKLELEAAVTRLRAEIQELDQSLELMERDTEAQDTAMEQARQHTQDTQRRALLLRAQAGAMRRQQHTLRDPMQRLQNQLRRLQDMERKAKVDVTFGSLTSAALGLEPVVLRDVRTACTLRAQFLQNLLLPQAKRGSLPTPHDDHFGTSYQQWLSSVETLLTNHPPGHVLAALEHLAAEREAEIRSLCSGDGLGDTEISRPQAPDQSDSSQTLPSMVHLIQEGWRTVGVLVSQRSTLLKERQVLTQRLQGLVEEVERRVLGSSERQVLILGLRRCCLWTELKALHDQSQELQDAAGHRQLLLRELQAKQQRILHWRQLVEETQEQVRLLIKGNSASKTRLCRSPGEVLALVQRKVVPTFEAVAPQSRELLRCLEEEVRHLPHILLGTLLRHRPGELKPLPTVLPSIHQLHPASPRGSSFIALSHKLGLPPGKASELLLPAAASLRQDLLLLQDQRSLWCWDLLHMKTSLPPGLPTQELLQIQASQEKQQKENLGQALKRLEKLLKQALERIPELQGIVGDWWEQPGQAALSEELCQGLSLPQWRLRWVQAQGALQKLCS
Briefly: cross-linking; purified augmin^ΔH6C with DSSO at 250:1, 500:1, 750:1 and 1000:1 molar ratio, 1 h on ice; trypsin in gel or in solution, LC-MS/MS, MetaMorpheus, 1% FDR. The following applies: both partners purified.

Assay [2] addresses T2, HAUS6 N-terminal region (a.a. 1–432) (human, UniProt Q7Z4H7 1-432).
T2 construct: HAUS6, human, N-terminal region a.a; 1-432 (C-terminal region H6C, a.a. 433-955, deleted); also called H6N; H6 in augmin^ΔH6C; source: High5 insect cells, co-infected with baculoviruses; purified as part of the augmin^ΔH6C octamer (StrepII-Trap, Superose 6)
T2 sequence (looked up): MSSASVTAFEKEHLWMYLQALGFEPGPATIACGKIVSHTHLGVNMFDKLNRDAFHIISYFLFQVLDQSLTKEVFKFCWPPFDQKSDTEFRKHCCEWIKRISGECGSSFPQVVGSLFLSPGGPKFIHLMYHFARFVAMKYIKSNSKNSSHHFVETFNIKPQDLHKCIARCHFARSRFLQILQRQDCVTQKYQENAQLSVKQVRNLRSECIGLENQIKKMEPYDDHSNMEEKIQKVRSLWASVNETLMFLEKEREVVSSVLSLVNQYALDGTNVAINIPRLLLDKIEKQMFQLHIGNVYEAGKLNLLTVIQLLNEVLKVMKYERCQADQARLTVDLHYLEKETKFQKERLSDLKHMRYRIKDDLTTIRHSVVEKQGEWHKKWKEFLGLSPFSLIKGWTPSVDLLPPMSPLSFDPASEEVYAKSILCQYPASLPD
The assay is described as above. The following applies: both partners purified.

B1: HAUS3 (natural protein, human, UniProt Q68CZ6 1-603, looked up)
chain: MSCGNEFVETLKKIGYPKADNLNGEDFDWLFEGVEDESFLKWFCGNVNEQNVLSERELEAFSILQKSGKPILEGAALDEALKTCKTSDLKTPRLDDKELEKLEDEVQTLLKLKNLKIQRRNKCQLMASVTSHKSLRLNAKEEEATKKLKQSQGILNAMITKISNELQALTDEVTQLMMFFRHSNLGQGTNPLVFLSQFSLEKYLSQEEQSTAALTLYTKKQFFQGIHEVVESSNEDNFQLLDIQTPSICDNQEILEERRLEMARLQLAYICAQHQLIHLKASNSSMKSSIKWAEESLHSLTSKAVDKENLDAKISSLTSEIMKLEKEVTQIKDRSLPAVVRENAQLLNMPVVKGDFDLQIAKQDYYTARQELVLNQLIKQKASFELLQLSYEIELRKHRDIYRQLENLVQELSQSNMMLYKQLEMLTDPSVSQQINPRNTIDTKDYSTHRLYQVLEGENKKKELFLTHGNLEEVAEKLKQNISLVQDQLAVSAQEHSFFLSKRNKDVDMLCDTLYQGGNQLLLSDQELTEQFHKVESQLNKLNHLLTDILADVKTKRKTLANNKLHQMEREFYVYFLKDEDYLKDIVENLETQSKIKAVSLED
notes: HAUS3, human; 603; also called H3; source: High5 insect cells, co-infected with baculoviruses; purified as part of the augmin octamer (StrepII-Trap, Superose 6)
Take B1: the binding result in assay [1] is given as “binds”.

B2: HAUS8 (natural protein, human, UniProt Q9BT25 1-410, looked up)
chain: MADSSGRGAGKPATGPTNSSSAKKKDKRVQGGRVIESRYLQYEKKTTQKAPAGDGSQTRGKMSEGGRKSSLLQKSKADSSGVGKGDLQSTLLEGHGTAPPDLDLSAINDKSIVKKTPQLAKTISKKPESTSFSAPRKKSPDLSEAMEMMESQTLLLTLLSVKMENNLAEFERRAEKNLLIMCKEKEKLQKKAHELKRRLLLSQRKRELADVLDAQIEMLSPFEAVATRFKEQYRTFATALDTTRHELPVRSIHLEGDGQQLLDALQHELVTTQRLLGELDVGDSEENVQVLDLLSELKDVTAKKDLELRRSFAQVLELSAEASKEAALANQEVWEETQGMAPPSRWYFNQDSACRESGGAPKNTPLSEDDNPGASSAPAQATFISPSEDFSSSSQAEVPPSLSRSGRDLS
notes: HAUS8, human; 410; a.a; 1-138 and 340-410 are not seen in the cryo-EM map; also called H8; source: High5 insect cells, co-infected with baculoviruses; purified as part of the augmin octamer (StrepII-Trap, Superose 6)
With B2, the binding result in assay [2] is recorded as “binds”.
